Reference: patent publication US20020031799A1

Legend:
[1] = biological target: FVIIIa (activated factor VIII) (UniProt P00451)
[2] = biological target: FVIIIa (activated factor VIII) (UniProt P00451); assay: apparent Kd; 0.1 nM FVIIIa titrated with 0-5 nM FIXa, 100 µM PSPC vesicles, 5 mM CaCl2; complex read by the initial rate of FXa generation, quadratic fit
[3] = biological target: FVIIIa (activated factor VIII) (UniProt P00451); assay: apparent Kd from FXa generation, as FIG. 1, in the absence of hirudin
[4] = biological target: FVIIIa (activated factor VIII) (UniProt P00451); assay: apparent Kd from FXa generation, as FIG. 1, in the presence of 100 nM hirudin

Chain of UniProt P00451 (P00451 whole entry, looked up): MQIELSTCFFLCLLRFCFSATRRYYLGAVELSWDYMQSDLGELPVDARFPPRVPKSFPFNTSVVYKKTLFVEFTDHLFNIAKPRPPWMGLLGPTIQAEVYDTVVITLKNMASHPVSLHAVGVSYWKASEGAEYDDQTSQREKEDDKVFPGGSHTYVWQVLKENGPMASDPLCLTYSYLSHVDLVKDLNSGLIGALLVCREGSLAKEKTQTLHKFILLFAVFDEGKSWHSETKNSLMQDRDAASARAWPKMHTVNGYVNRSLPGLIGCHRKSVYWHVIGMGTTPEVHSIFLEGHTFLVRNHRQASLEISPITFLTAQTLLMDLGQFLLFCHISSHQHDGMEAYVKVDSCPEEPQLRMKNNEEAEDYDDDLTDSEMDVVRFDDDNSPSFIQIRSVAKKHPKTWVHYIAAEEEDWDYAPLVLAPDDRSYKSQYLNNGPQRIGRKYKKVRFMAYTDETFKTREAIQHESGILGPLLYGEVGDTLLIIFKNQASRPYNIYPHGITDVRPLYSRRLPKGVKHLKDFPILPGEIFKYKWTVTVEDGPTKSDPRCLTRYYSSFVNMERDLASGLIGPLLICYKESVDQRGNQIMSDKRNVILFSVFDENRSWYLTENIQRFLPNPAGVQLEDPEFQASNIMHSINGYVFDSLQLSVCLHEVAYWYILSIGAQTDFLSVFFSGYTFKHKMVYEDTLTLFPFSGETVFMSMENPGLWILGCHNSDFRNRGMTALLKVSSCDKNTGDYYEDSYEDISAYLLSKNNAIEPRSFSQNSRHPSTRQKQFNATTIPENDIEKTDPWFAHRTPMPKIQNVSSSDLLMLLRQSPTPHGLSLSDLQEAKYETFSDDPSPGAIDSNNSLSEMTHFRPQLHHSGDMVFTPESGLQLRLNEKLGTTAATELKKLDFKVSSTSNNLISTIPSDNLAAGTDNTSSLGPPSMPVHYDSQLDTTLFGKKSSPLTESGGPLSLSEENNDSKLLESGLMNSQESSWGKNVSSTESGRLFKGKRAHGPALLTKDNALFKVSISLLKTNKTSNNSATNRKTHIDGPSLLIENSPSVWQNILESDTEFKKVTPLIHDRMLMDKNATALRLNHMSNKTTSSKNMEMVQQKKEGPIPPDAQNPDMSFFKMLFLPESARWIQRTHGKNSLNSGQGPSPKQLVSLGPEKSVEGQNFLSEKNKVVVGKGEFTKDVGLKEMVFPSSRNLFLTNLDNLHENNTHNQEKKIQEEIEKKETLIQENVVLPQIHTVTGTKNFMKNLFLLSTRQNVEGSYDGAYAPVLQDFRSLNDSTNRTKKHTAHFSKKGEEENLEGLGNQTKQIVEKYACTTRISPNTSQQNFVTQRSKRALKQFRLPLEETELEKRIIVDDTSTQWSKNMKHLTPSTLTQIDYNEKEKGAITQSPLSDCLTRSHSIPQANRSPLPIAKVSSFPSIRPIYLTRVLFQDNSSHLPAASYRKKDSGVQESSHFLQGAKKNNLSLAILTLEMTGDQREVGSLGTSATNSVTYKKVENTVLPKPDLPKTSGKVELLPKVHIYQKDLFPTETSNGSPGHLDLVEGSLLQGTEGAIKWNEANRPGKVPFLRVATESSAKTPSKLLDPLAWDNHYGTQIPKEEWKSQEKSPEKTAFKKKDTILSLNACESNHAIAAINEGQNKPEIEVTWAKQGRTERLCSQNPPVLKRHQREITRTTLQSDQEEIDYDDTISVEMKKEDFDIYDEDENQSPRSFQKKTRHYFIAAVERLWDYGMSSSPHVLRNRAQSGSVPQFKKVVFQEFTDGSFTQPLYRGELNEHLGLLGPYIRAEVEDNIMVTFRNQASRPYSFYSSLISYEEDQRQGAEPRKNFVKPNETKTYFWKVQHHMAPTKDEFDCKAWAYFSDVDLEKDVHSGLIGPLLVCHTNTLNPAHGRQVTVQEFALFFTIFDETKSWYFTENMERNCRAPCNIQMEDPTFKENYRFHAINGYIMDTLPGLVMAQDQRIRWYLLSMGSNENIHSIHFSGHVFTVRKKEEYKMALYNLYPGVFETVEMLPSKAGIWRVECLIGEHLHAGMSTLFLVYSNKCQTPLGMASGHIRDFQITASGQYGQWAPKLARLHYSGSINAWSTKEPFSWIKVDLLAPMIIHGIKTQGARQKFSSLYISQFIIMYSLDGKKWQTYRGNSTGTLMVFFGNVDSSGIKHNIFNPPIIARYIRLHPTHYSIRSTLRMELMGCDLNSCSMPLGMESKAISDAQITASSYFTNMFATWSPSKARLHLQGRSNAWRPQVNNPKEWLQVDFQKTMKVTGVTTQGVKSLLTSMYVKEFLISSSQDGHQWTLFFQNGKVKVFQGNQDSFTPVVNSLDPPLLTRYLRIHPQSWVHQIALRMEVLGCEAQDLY

Row | Substance | Bmax, in the absence of hirudin [1] [nM FXa/min] | Bmax, in the presence of 100 nM hirudin [1] [nM FXa/min] | maximum rate of FX cleavage (Bmax of FIG. 1) [1] | further results
1 | R338A-FIXa (activated Factor IX with alanine at position 338) | 3.39±0.12 | 3.38±0.19 | 3.56±0.15 nM FXa/min | 
2 | plasma FIXa (activated purified normal human plasma Factor IX) |  |  | 1.30 ± 0.10 nM/min | 
3 | plasma FIXa (activated purified normal human plasma Factor IX) (from UniProt P00740 47-191; P00740 227-461) (enzyme) |  |  |  | Kd [2]: 1.01 nM
4 | recombinant wt-FIXa (activated recombinant wild type Factor IX) | 1.27±0.12 | 1.35±0.15 |  | 
5 | recombinant wt-FIXa (activated recombinant wild type Factor IX) (from UniProt P00740 47-191; P00740 227-461) (enzyme) |  |  |  | Kd [3]: 0.38 nM; Kd [4]: 0.85 nM
